Experimental data: patent US20140271653A1

Experiments:
Assay in all cases: cell-based or functional assay
[1] = target: RSV-F of RSV subtype A clinical isolate A1997/12-35 (respiratory syncytial virus subtype A, clinical isolate A1997/12-35)
[2] = target: RSV-F of RSV subtype A clinical isolate A1998/12-21 (respiratory syncytial virus subtype A, clinical isolate A1998/12-21)
[3] = target: RSV-F of RSV subtype A clinical isolate A1998/3-2 (respiratory syncytial virus subtype A, clinical isolate A1998/3-2)
[4] = target: RSV-F of RSV subtype A clinical isolate A2000/3-4 (respiratory syncytial virus subtype A, clinical isolate A2000/3-4)
[5] = target: RSV-F of RSV subtype A clinical isolate A2001/2-20 (respiratory syncytial virus subtype A, clinical isolate A2001/2-20)
[6] = target: RSV-F of RSV subtype A clinical isolate A2001/3-12 (respiratory syncytial virus subtype A, clinical isolate A2001/3-12)
[7] = target: RSV-F of RSV subtype A strain A2 (1540) (respiratory syncytial virus subtype A, strain A2 (1540)) (UniProt P03420)
RSV-F of RSV subtype A strain A2 (1540) (respiratory syncytial virus subtype A, strain A2 (1540)), sequence (P03420 26-574): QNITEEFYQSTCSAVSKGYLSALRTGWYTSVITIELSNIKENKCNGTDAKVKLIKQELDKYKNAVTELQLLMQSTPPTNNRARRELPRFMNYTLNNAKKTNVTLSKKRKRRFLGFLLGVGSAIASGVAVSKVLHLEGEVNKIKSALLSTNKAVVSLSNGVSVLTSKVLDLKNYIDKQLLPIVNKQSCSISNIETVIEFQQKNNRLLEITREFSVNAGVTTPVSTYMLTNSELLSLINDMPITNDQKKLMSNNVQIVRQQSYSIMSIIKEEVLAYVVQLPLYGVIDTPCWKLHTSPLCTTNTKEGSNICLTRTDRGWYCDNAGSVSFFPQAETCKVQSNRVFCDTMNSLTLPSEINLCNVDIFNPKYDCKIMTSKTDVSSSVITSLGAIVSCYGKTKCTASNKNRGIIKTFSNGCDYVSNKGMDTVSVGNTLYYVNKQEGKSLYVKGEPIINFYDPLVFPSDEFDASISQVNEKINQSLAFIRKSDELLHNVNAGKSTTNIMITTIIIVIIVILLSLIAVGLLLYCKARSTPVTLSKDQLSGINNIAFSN

[8] = target: RSV-F of RSV subtype A strain Long (respiratory syncytial virus subtype A, strain Long) (UniProt P12568)
RSV-F of RSV subtype A strain Long (respiratory syncytial virus subtype A, strain Long), sequence (P12568 26-574): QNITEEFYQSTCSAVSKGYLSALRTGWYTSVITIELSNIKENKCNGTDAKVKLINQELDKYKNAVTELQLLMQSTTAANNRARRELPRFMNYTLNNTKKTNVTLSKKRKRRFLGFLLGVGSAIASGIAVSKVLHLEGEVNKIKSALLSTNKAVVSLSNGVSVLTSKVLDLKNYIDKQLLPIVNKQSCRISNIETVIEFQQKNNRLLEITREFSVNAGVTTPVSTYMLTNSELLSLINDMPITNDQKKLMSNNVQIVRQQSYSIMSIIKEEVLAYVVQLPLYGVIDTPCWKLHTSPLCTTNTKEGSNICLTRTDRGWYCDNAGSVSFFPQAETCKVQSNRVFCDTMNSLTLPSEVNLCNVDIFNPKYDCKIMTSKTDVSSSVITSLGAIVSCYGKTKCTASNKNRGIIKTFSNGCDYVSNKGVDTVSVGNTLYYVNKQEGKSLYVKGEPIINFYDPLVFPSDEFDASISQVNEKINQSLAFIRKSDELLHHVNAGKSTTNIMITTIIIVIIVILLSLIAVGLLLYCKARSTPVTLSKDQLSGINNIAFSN

[9] = target: RSV-F of RSV subtype B strain 1400 (respiratory syncytial virus subtype B, strain 1400)
[10] = target: RSV-F of RSV subtype B strain 18537 (respiratory syncytial virus subtype B, strain 18537) (UniProt P13843)
RSV-F of RSV subtype B strain 18537 (respiratory syncytial virus subtype B, strain 18537), sequence (P13843 26-574): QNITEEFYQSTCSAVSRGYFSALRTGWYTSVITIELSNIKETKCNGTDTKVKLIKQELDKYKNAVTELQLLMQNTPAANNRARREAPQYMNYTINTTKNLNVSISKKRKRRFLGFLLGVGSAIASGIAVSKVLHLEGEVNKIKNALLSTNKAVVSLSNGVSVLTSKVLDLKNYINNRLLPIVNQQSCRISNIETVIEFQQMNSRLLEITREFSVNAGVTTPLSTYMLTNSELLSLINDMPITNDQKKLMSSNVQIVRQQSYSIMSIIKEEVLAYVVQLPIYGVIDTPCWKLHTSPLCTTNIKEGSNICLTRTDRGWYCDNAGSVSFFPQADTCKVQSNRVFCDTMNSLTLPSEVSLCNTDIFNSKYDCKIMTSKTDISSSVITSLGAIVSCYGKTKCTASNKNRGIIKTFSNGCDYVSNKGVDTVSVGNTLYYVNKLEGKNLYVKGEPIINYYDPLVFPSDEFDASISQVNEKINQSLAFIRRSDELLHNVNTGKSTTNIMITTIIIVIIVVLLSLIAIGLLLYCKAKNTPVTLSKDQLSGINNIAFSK

[11] = target: RSV-F of RSV subtype B strain 1A2 (respiratory syncytial virus subtype B, strain 1A2)
[12] = target: RSV-F of RSV subtype B strain 9320 (respiratory syncytial virus subtype B, strain 9320)

Control III (AM-22) (antibody), sequence (VH): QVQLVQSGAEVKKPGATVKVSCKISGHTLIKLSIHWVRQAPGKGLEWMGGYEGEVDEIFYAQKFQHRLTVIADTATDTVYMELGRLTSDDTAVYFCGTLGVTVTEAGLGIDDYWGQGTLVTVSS
Control III (AM-22) (antibody), sequence (VL): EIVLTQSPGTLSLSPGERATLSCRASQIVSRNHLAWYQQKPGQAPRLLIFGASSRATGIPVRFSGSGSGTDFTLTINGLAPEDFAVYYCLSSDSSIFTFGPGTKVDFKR

Substance: Control III (AM-22) (antibody)
- IC50 (pM), RSV micro-neutralization, clinical isolate [1]: 20 pM
- IC50 (pM), RSV micro-neutralization, clinical isolate [2]: 43 pM
- IC50 (pM), RSV micro-neutralization, clinical isolate [3]: 31 pM
- IC50 (pM), RSV micro-neutralization, clinical isolate [4]: 55 pM
- IC50 (pM), RSV micro-neutralization, clinical isolate [5]: 72 pM
- IC50 (pM), RSV micro-neutralization, clinical isolate [6]: 60 pM
- IC50 (pM), RSV micro-neutralization, A/A2 [7]: 91 pM
- IC50 (pM), RSV micro-neutralization, A/Long [8]: 86 pM
- IC50 (pM), RSV micro-neutralization, B/1400 [9]: 190 pM
- IC50 (pM), RSV micro-neutralization, B/18537 [10]: 660 pM
- IC50 (pM), RSV micro-neutralization, B/1A2 [11]: 580 pM
- IC50 (pM), RSV micro-neutralization, B/9320 [12]: 2510 pM
